The values below come from patent US20170296640A1 (IMMATICS BIOTECHNOLOGIES, published 2017).

The labels stand for the following.
B1: FLNQESFDL (SEQ ID NO: 27) (peptide)
peptide: FLNQESFDL
B2: VVVDSDSLAFV (SEQ ID NO: 270) (peptide)
peptide: VVVDSDSLAFV
B3: IASPVIAAV (SEQ ID NO: 290) (peptide)
peptide: IASPVIAAV
B4: YLLDQPVLEQRL (SEQ ID NO: 271) (peptide)
peptide: YLLDQPVLEQRL
B5: VLFPLPTPL (SEQ ID NO: 268) (peptide)
peptide: VLFPLPTPL
B6: RLAPEIVSA (SEQ ID NO: 288) (peptide)
peptide: RLAPEIVSA
B7: SLLNHLPYL (SEQ ID NO: 280) (peptide)
peptide: SLLNHLPYL
B8: FLIDLNSTHGTFL (SEQ ID NO: 277) (peptide)
peptide: FLIDLNSTHGTFL
B9: HLTEDTPKV (SEQ ID NO: 286) (peptide)
peptide: HLTEDTPKV
B10: RLLEEEGVSL (SEQ ID NO: 299) (peptide)
peptide: RLLEEEGVSL
B11: ILMGHSLYM (SEQ ID NO: 287) (peptide)
peptide: ILMGHSLYM
B12: SLLAANNLL (SEQ ID NO: 289) (peptide)
peptide: SLLAANNLL
B13: GLAMVEAISYV (SEQ ID NO: 293) (peptide)
peptide: GLAMVEAISYV
B14: IVLERNPEL (SEQ ID NO: 300) (peptide)
peptide: IVLERNPEL
B15: KLYGPEGLELV (SEQ ID NO: 294) (peptide)
peptide: KLYGPEGLELV
B16: FLPETRIMTSV (SEQ ID NO: 261) (peptide)
peptide: FLPETRIMTSV
B17: NMISYVVHL (SEQ ID NO: 276) (peptide)
peptide: NMISYVVHL
B18: FLLFINHRL (SEQ ID NO: 278) (peptide)
peptide: FLLFINHRL
B19: KLDHTLSQI (SEQ ID NO: 272) (peptide)
peptide: KLDHTLSQI
B20: NLAGENILNPL (SEQ ID NO: 279) (peptide)
peptide: NLAGENILNPL
B21: AILLPQPPK (SEQ ID NO: 273) (peptide)
peptide: AILLPQPPK
B22: FILEPLYKI (SEQ ID NO: 296) (peptide)
peptide: FILEPLYKI
B23: ILSTLDVEL (SEQ ID NO: 30) (peptide)
peptide: ILSTLDVEL
B24: KLMDLEDCAL (SEQ ID NO: 275) (peptide)
peptide: KLMDLEDCAL
B25: ILQNGLETL (SEQ ID NO: 297) (peptide)
peptide: ILQNGLETL
B26: ALTDVILCV (SEQ ID NO: 298) (peptide)
peptide: ALTDVILCV
B27: RIYPFLLMV (SEQ ID NO: 258) (peptide)
peptide: RIYPFLLMV
B28: RLDEAFDFV (SEQ ID NO: 260) (peptide)
peptide: RLDEAFDFV
B29: KIIDTAGLSEA (SEQ ID NO: 291) (peptide)
peptide: KIIDTAGLSEA
B30: ILSDVTQGL (SEQ ID NO: 29) (peptide)
peptide: ILSDVTQGL
B31: QLTEMLPSI (SEQ ID NO: 266) (peptide)
peptide: QLTEMLPSI
B32: ALMPVTPQA (SEQ ID NO: 283) (peptide)
peptide: ALMPVTPQA
B33: ILWHFVASL (SEQ ID NO: 265) (peptide)
peptide: ILWHFVASL
B34: LMGPVVHEV (SEQ ID NO: 262) (peptide)
peptide: LMGPVVHEV
B35: KLINSQISL (SEQ ID NO: 292) (peptide)
peptide: KLINSQISL
B36: YLLEQGAQV (SEQ ID NO: 282) (peptide)
peptide: YLLEQGAQV
B37: FLSNANPSL (SEQ ID NO: 28) (peptide)
peptide: FLSNANPSL
B38: KLQEQIHRV (SEQ ID NO: 284) (peptide)
peptide: KLQEQIHRV
B39: SLAAVSQQL (SEQ ID NO: 295) (peptide)
peptide: SLAAVSQQL
B40: SLLETGSDLLL (SEQ ID NO: 267) (peptide)
peptide: SLLETGSDLLL
B41: LQFDGIHVV (SEQ ID NO: 301) (peptide)
peptide: LQFDGIHVV
B42: VLQNVAFSV (SEQ ID NO: 269) (peptide)
peptide: VLQNVAFSV
B43: SITAVTPLL (SEQ ID NO: 285) (peptide)
peptide: SITAVTPLL
B44: FLQEWEVYA (SEQ ID NO: 257) (peptide)
peptide: FLQEWEVYA
B45: ILTGTPPGV (SEQ ID NO: 264) (peptide)
peptide: ILTGTPPGV
B46: GLMDNEIKV (SEQ ID NO: 263) (peptide)
peptide: GLMDNEIKV
B47: KLLNLISKL (SEQ ID NO: 274) (peptide)
peptide: KLLNLISKL
B48: TVLDGLEFKV (SEQ ID NO: 259) (peptide)
peptide: TVLDGLEFKV
B49: TLQTVPLTTV (SEQ ID NO: 281) (peptide)
peptide: TLQTVPLTTV

This assay concerns the target T1, HLA-A*02:01 (peptide-receptive MHC class I monomer after UV cleavage of the UV-sensitive ligand) (human).
T1 construct: MHC monomers loaded by UV-ligand exchange and captured on streptavidin plates
Kind of assay: UV ligand-exchange ELISA; exchange yield grade (+ >=10%, ++ >=20%, +++ >=50%, ++++ >=75%). In short, it runs like this: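 Peptide–MHC complexes formed by UV-ligand exchange, cleaving a UV-sensitive peptide so the test peptide can bind. Exchange yield measured by ELISA: complexes captured on streptavidin-coated wells, diluted 100-fold, detected with HRP anti-β2m (1 h, 37 °C) and TMB at 450 nm, against refolded HLA-A*02:01/MLA-001 standards (15-500 ng/ml).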
On the technique in general: In an ELISA, binding on a coated surface is turned into a signal by an enzyme label.
The molecule B1 yielded a peptide exchange yield of 50 to 75%.
To B2 belongs at least 75%.
To B3 belongs 50 to 75%; to B4, at least 75%; to B5, at least 75%.
Then B6, with 50 to 75%.
B7 displayed a peptide exchange yield of at least 75%.
To B8 belongs 50 to 75%; to B9, 50 to 75%.
Then B10, with 50 to 75%.
To B11 belongs at least 75%; to B12, at least 75%; to B13, at least 75%.
With B14, the peptide exchange yield fell in the range of 50 to 75%.
B15 registered a peptide exchange yield of at least 75%.
To B16 belongs at least 75%; to B17, 20 to 50%; to B18, 50 to 75%.
To B19 belongs 50 to 75%; to B20, 50 to 75%.
Then B21, with 20 to 50%; and B22, with at least 75%.
In the case of B23, the peptide exchange yield lay within 50 to 75%.
B24 returned a peptide exchange yield of at least 75%.
To B25 belongs 50 to 75%; to B26, at least 75%; to B27, 50 to 75%.
To B28 belongs at least 75%; to B29, 50 to 75%; to B30, 50 to 75%.
To B31 belongs at least 75%.
B32 had a peptide exchange yield of 50 to 75%.
Then B33, with at least 75%; and B34, with at least 75%; and B35, with 50 to 75%.
As to B36, the peptide exchange yield is at least 75%.
To B37 belongs 50 to 75%; to B38, 50 to 75%; to B39, 50 to 75%.
To B40 belongs 50 to 75%; to B41, 50 to 75%.
Then B42, with at least 75%; and B43, with 50 to 75%.
In the case of B44, the peptide exchange yield was at least 75%.
To B45 belongs 50 to 75%.
To B46 belongs 50 to 75%; to B47, at least 75%.
Take B48: the peptide exchange yield was at least 75%.
To B49 belongs at least 75%.
